Measured values taken from US20130303393A1.

Molecular target: NlpA-80R(scFv)

B1: M18.1 Hum IgG (antibody, V domains shown)
VH: EVQLVESGGGLVQPGGSLRLSCADSGYAFNSSWMNWVRQAPGKGLEWVGRIYPGDGDSNYNGKFEGRAIISADKSSSTAYLQMNSLRAEDTAVYYCARSGLLRYAMDYWGQGTLVTVSS
VL: DIQMTQSPSSLSASVGDRVTVTCRASQGIRNYLNWYQQKPGKAPKFLIYYTSRLLPGVPSRFSGSGSGTDYTLTINSLEQEDIATYYCQQGNTPPWTFGQGTKVEIKR
M (FL1-Height): 4
